# Results reported in US20130171217A1, “ENZYMATIC PERACID GENERATION FOR USE IN SKIN CARE PRODUCTS” (E I DU PONT DE NEMOURS AND COMPANY, priority 2010, published 2013).
# Assay: One-step procedure on hair tresses, hair color loss ΔE
# Procedure: The hair tresses in these examples were cut from the stock medium brown hair swatches that were custom made by International Hair Importers (Glendale, N.Y.). Each hair tress was glued at one end, and cut at 5 mm width and 4 cm long (excluding the glued portion), with 100+/−20 mg net hair weight. For each test condition, triplicates of hair tresses were used. In the one-step procedure, each hair tress was placed in a clean plastic weighing tray (VWR, Cat. #12577-053), then 1 mL of the perhydrolase HC1121 solution in a buffer was applied to the hair tress, and was rubbed into the hair tress with an applicator. Then calculated amount of triacetin and 30% H2O2 were applied onto each hair tress and rubbed into the hair tress which gave 200 mM triacetin and 100 mM H2O2. The hair tress sat in this reaction mixture for 30 min, before being washed thoroughly with tap water followed by paper towel dry. This completed a 30 min treatment cycle. The treatment cycle was repeated 16 times. Hair tress became lighter-colored and weakened during the treatment. After final rinse and air-drying, tensile strength tests as described in Example 25 were conducted on each hair tress to quantify hair weakening. In addition, L*, a*, b* color measurements were taken for each hair sample to quantify hair color loss, and L*, a*, b* color measurements were also taken for untreated hair as a reference for ΔE color difference calculations. ΔE was calculated in the standard way as ΔE=((L*−L*ref)^2+(a*−a*ref)^2+(b*−b*ref)^2)^0.5. […] At pH 6, when 30 μg/mL HC1121 was used which gave 0.3 μg/mg hair E/H ratio, the tensile strength of treated hair tress reduced to 1.9 N/mg hair, approaching 1.5 N/mg hair, the benchmark strength of hair treated with NAIR® cream for 5 min. At pH 7, when 30 μg/mL HC1121 was used, the tensile strength of treated hair tress was 0.3 N/mg hair, much less than the 1.5 N/mg hair benchmark. Therefore, proper concentration of enzyme at proper pH could weaken hair effectively. The measured hair color loss for treated hair tresses correlated well with the weakening of hair: the greater hair weakening, the greater hair color loss.
# Hair tresses were treated using the same procedure as described in Example 40, except that SLES (sodium laurel ether sulfate, a common soap ingredient) wash step was added before tap water rinse step each cycle to imitate daily shower in real life, where 1 mL 1% SLES (“RHODAPEX ES 2K” by Rhodia Inc., Cranbury, N.J.) was transferred onto hair tress and the hair tress was rubbed with gloved hand on the palm for 30 seconds. The treatment parameters for this example (enzyme concentration, pH and buffer concentration, and treatment cycle time) were shown in Table 34. For the 24 hr treatment cycle, the hair tress sat in the mixture for 1 hr before being taken out to a dry dish. The hair tress sat dry for 23 hr before being washed with 1 mL 1% SLES followed by tap water rinse and paper towel dry. For the 30 min treatment cycles, the treatment cycle was repeated 16 times. […] After final rinse and air-drying for each hair tress, tensile strength test and color measurement as described in Example 40 were conducted on each hair tress to quantify hair weakening and hair color loss. […] Hair tensile strength ranged from 0.3 to 0.8 N/mg hair, much less than the 1.5 N/mg hair tensile strength benchmark. Stronger hair weakening occurred at higher buffer concentration and longer treatment time. […] Therefore, it was anticipated that even lower enzyme concentration could be used to reach benchmark hair weakening at slightly higher pH (pH 6.6 compared to pH 6 in Example 40), higher buffer concentration and longer treatment time.
# Hair tresses were treated using the same procedure for 24 hr treatment cycles as described in Example 41 using 10 μg/mL HC1121 at pH 6.6 and substrates at various concentrations. […]
molecule,measurement,setting,value
C277S-HC263: C277S variant of Thermotoga maritima perhydrolase fused via a flexible linker to hair-binding domain HC263 (protein) MAFFDLPLEELKKYRPERYEEKDFDEFWEETLAESEKFPLDPVFERMESHLKTVEAYDVTFSGYRGQRIKGWLLVPKLEEEKLPCVVQYIGYNGGRGFPHDWLFWPSMGYICFVMDTRGQGSGWLKGDTPDYPEGPVDPQYPGFMTRGILDPRTYYYRRVFTDAVRAVEAAASFPQVDQERIVIAGGSQGGGIALAVSALSKKAKALLCDVPFLCHFRRAVQLVDTHPYAEITNFLKTHRDKEEIVFRTLSYFDGVNFAARAKIPALFSVGLMDNISPPSTVFAAYNYYAGPKEIRIYPYNNHEGGGSFQAVEQVKFLKKLFEKGGPGSGGAGSPGSAGGPGSPSAQSQLPDKHSGLHERAPQRYGPEPEPEPEPIPEPPKEAPVVIEKPKPKPKPKPKPPAHDHKNQKETHQRHAAGSGGGGSPHHHHHH,Hair color loss avg ΔE,"10 μg/mL HC1121, pH 6.6, 50 mM phosphate, 200 mM TA/100 mM H2O2, 24 hr/cycle, 8 cycles",13.8
same,Hair color loss avg ΔE,"10 μg/mL HC1121, pH 6.6, 50 mM phosphate, 200 mM TA/200 mM H2O2, 24 hr/cycle, 8 cycles",16.7
same,Hair color loss avg ΔE,"10 μg/mL HC1121, pH 6.6, 50 mM phosphate, 200 mM TA/300 mM H2O2, 24 hr/cycle, 8 cycles",20.1
same,Hair color loss avg ΔE,"10 μg/mL HC1121, pH 6.6, 50 mM phosphate, 200 mM TA/500 mM H2O2, 24 hr/cycle, 8 cycles",21.8
same,Hair color loss avg ΔE,"10 μg/mL HC1121, pH 6.6, 50 mM phosphate, 500 mM TA/500 mM H2O2, 24 hr/cycle, 8 cycles",22.3
same,Hair color loss avg ΔE,"one-step, 5 μg/mL enzyme, pH 6, 30 min × 16",5.2
same,Hair color loss avg ΔE,"one-step, 15 μg/mL enzyme, pH 6, 30 min × 16",6.8
same,Hair color loss avg ΔE,"one-step, 30 μg/mL enzyme, pH 6, 30 min × 16",8.7
same,Hair color loss avg ΔE,"one-step, 30 μg/mL enzyme, pH 7, 30 min × 16",16.6
same,Hair color loss avg ΔE,"one-step, pH 6.6, 50 mM buffer, 30 min/cycle X 16 cycles, SLES wash each cycle",17.7
same,Hair color loss avg ΔE,"one-step, pH 6.6, 50 mM buffer, 24 hr/cycle X 7 cycles, SLES wash each cycle",15.6
same,Hair color loss avg ΔE,"one-step, pH 6.6, 100 mM buffer, 30 min/cycle X 16 cycles, SLES wash each cycle",24.2
